{"source": "patent US20120020948A1", "about": "“DAG-TYPE AND INDIRECT PROTEIN KINASE C ACTIVATORS AND ANTICOAGULANT FOR THE TREATMENT OF STROKE” (priority 2010, published 2012)", "system": "rats with focal ischemia (MCAO)", "experiment": "Mortality after focal ischemia (MCAO) stroke", "type": "in vivo", "details": "rTPA i.v. 6 hours after the stroke, with or without bryostatin-1 2 hours later", "protocol": "A transient animal model of focal ischemia was used for these experiments. The middle cerebral artery (MCA) was surgically dissected and occluded in anesthetized rats by ligature, followed by reperfusion after a defined period (about 2 hours). Animal models transient ischemia via occlusion of the MCA (MCAO) are described in, e.g., Sicard and Fisher, Exp. & Transl. Stroke Med. (2009), vol. 1, pp. 1-7.\nIn contrast, if rTPA was given 6 hours after the stroke, in the absence of subsequent treatment with bryostatin, 44% mortality was observed (N=6 animals)."}
{"molecule": "rTPA: recombinant tissue plasminogen activator, thrombolytic serine protease approved for ischemic stroke (protein, UniProt P00750 36-562, looked up) Tissue-type plasminogen …: SYQVICRDEKTQMIYQQHQSWLRPVLRSNRVEYCWCNSGRAQCHSVPVKSCSEPRCFNGGTCQQALYFSDFVCQCPEGFAGKCCEIDTRATCYEDQGISYRGTWSTAESGAECTNWNSSALAQKPYSGRRPDAIRLGLGNHNYCRNPDRDSKPWCYVFKAGKYSSEFCSTPACSEGNSDCYFGNGSAYRGTHSLTESGASCLPWNSMILIGKVYTAQNPSAQALGLGKHNYCRNPDGDAKPWCHVLKNRRLTWEYCDVPSCSTCGLRQYSQPQFRIKGGLFADIASHPWQAAIFAKHRRSPGERFLCGGILISSCWILSAAHCFQERFPPHHLTVILGRTYRVVPGEEEQKFEVEKYIVHKEFDDDTYDNDIALLQLKSDSSRCAQESSVVRTVCLPPADLQLPDWTECELSGYGKHEALSPFYSERLKEAHVRLYPSSRCTSQHLLNRTVTDNMLCAGDTRSGGPQANLHDACQGDSGGPLVCLNDGRMTLVGIISWGLGCGQKDVPGVYTKVTNYLDWIRDNMRP", "values": [{"measurement": "mortality 24 hours later", "result": 44, "unit": "%"}]}
